Measured values from the supplement of paper PMC10724198.

How the values were obtained:
Saccharomyces cerevisiae [1] = assay: protein stability index of tFT-peptide fusion in wild type (PSI (0-1 scale)); higher = more stable (slower turnover); conditions: genetic background: wild type
Saccharomyces cerevisiae [2] = assay: protein stability index of tFT-peptide fusion in deletion strain of DOA10 (PSI (0-1 scale)); higher = more stable (slower turnover)
Procedure: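 MPS profiling in S. cerevisiae of two library types built from selected 12-aa C-degron peptides (IN1, IN2, LN1, LN3, VN2, R1-R5, W1-W3, Atg1 and Rpa12 C-termini): saturation mutagenesis libraries and C-terminal +1 capping libraries (13 aa). Each peptide is fused to the C-terminus of a sfGFP-mCherry timer, after a GGGS linker. Cells are FACS-sorted into 8 mCherry/sfGFP bins and sequenced. PSI runs from 0 (unstable) to 1 (stable), measured once in wild type and in the das1Δ or doa10Δ background.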

Saccharomyces cerevisiae [3] = assay: protein stability index of tFT-peptide fusion in deletion strain of DAS1 (PSI (0-1 scale)); higher = more stable (slower turnover)
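For protein stability index of tFT-peptide fusion in deletion strain of DAS1 in this document: PSI is a weighted mean of each variant's read distribution over the sorted stability bins, computed only for variants having over 10 reads in total.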
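For protein stability index of tFT-peptide fusion in deletion strain of DOA10 in this document: PSI per variant is the weighted mean of its sequencing read distribution over the sorted stability bins, counting only variants with over 10 reads summed across bins.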
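For protein stability index of tFT-peptide fusion in wild type in this document: PSI derived as read-weighted mean over the 8 sorting bins, only variants exceeding 10 total reads kept, mCherry placed adjacent to the peptide and sfGFP distal.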

Sequence | protein stability index (Saccharomyces cerevisiae [1]) | protein stability index (Saccharomyces cerevisiae [2]) | protein stability index (Saccharomyces cerevisiae [3])
AETLPMCPLLLR | 0.55 | 0.697 | –
AHTLPMCPLLLR | 0.346 | 0.664 | –
AIILPMCPLLLR | 0.277 | 0.617 | –
AIPLPMCPLLLR | 0.28 | 0.653 | –
AITLAMCPLLLR | 0.418 | 0.65 | –
AITLKMCPLLLR | 0.296 | 0.624 | –
AITLLMCPLLLR | 0.37 | 0.629 | –
AITLPLCPLLLR | 0.19 | 0.647 | –
AITLPMCGLLLR | 0.243 | 0.63 | –
AITLPMCILLLR | 0.091 | 0.603 | –
AITLPMCMLLLR | 0.133 | 0.651 | –
AITLPMCPDLLR | 0.669 | 0.677 | –
AITLPMCPLLDR | 0.655 | 0.7 | –
AITLPMCPLLFR | 0.27 | 0.669 | –
AITLPMCPLLLA | 0.269 | 0.313 | –
AITLPMCPLLLE | 0.618 | 0.652 | –
AITLPMCPLLLG | 0.509 | 0.544 | –
AITLPMCPLLLRP | 0.281 | 0.636 | –
AITLPMCPLLLRW | 0.0872 | 0.621 | –
AITLPMCPLNLR | 0.645 | 0.673 | –
AITLPMCPLSLR | 0.596 | 0.665 | –
AITLPMCPLYLR | 0.135 | 0.675 | –

Sequence | protein stability index (Saccharomyces cerevisiae [1]) | protein stability index (Saccharomyces cerevisiae [2]) | protein stability index (Saccharomyces cerevisiae [3])
AITLPMCPVLLR | 0.322 | 0.623 | –
AITLPMCPWLLR | 0.652 | 0.667 | –
AITLPMMPLLLR | 0.187 | 0.639 | –
AITLPMPPLLLR | 0.257 | 0.682 | –
AITLPMSPLLLR | 0.276 | 0.673 | –
ALVSLPILLFFR | 0.0758 | 0.653 | –
ARTLPMCPLLLR | 0.311 | 0.669 | –
ASLRVLLPLYFR | 0.285 | 0.666 | –
PSLAASFWRWVG | 0.145 | – | 0.706
PSLAASFWSVVG | 0.694 | – | 0.709
PSLAASFWWVVG | 0.582 | – | 0.718
PSLAASYWRVVG | 0.157 | – | 0.672
PSLAFSFWRVVG | 0.111 | – | 0.676
PSLCASFWRVVG | 0.129 | – | 0.68
PSLLASFWRVVG | 0.145 | – | 0.695
PSMAASFWRVVG | 0.126 | – | 0.699
PSQAASFWRVVG | 0.161 | – | 0.695
PSYAASFWRVVG | 0.131 | – | 0.715
RDKRNHLIKLLN | 0.1 | – | 0.612
RKILRQKMNHQN | 0.162 | – | 0.69
RLIKPLPVQFLN | 0.0432 | – | 0.627
RLIQPLIVQFLN | 0.0468 | – | 0.542

Sequence | protein stability index (Saccharomyces cerevisiae [1]) | protein stability index (Saccharomyces cerevisiae [2]) | protein stability index (Saccharomyces cerevisiae [3])
RLIQPLMVQFLN | 0.0988 | – | 0.598
RLIQPLPEQFLN | 0.29 | – | 0.592
RLIQPLPVDFLN | 0.716 | – | 0.624
RLIQPLPVIFLN | 0.138 | – | 0.548
RLIQPLPVNFLN | 0.0915 | – | 0.579
RLIQPLPVPFLN | 0.313 | – | 0.607
RLIQPLPVQFLG | 0.35 | – | 0.6
RLIQPLPVQFLH | 0.301 | – | 0.582
RLIQPLPVQFLK | 0.613 | – | 0.881
RLIQPLPVQFLM | 0.13 | – | 0.595
RLIQPLPVQFLNA | 0.545 | – | 0.612
RLIQPLPVQFLNY | 0.433 | – | 0.641
RLIQPLPVQKLN | 0.0688 | – | 0.809
RLIQPNPVQFLN | 0.0748 | – | 0.576
RLITPLPVQFLN | 0.0429 | – | 0.605
RMIQPLPVQFLN | 0.045 | – | 0.571
RTSCGYKFRTNN | 0.188 | – | 0.685
SLIQPLPVQFLN | 0.0779 | – | 0.618
TRGAVGGWRLVG | 0.162 | – | 0.68
VPGAVGGWRLVG | 0.139 | – | 0.667
VRGAVGGIRLVG | 0.589 | – | 0.682
VRGAVGGRRLVG | 0.641 | – | 0.675

Sequence | protein stability index (Saccharomyces cerevisiae [1]) | protein stability index (Saccharomyces cerevisiae [2]) | protein stability index (Saccharomyces cerevisiae [3])
VRGAVGGWELVG | 0.551 | – | 0.63
VRGAVGGWRLDG | 0.648 | – | 0.691
VRGAVGGWRLVA | 0.151 | – | 0.677
VRGAVGGWRLVD | 0.615 | – | 0.684
VRGAVGGWRLVGN | 0.639 | – | 0.67
VRGAVGGWRLVGR | 0.676 | – | 0.674
VRGAVGGWRLVH | 0.233 | – | 0.666
VRGAVGGWRRVG | 0.163 | – | 0.67
VRGAVGGWRSVG | 0.342 | – | 0.664
VRGAVGGWYLVG | 0.603 | – | 0.691
VRGAVGQWRLVG | 0.147 | – | 0.663
VRGAVHGWRLVG | 0.155 | – | 0.679
VRGAVSGWRLVG | 0.145 | – | 0.683
VRGEVGGWRLVG | 0.119 | – | 0.606
VRGFVGGWRLVG | 0.145 | – | 0.691
VRGNVGGWRLVG | 0.109 | – | 0.667
VRGPVGGWRLVG | 0.181 | – | 0.682
VRGVVGGWRLVG | 0.176 | – | 0.679
VRLAVGGWRLVG | 0.131 | – | 0.679
VTGAVGGWRLVG | 0.141 | – | 0.672
VVVYLSCVACIN | 0.0234 | – | 0.0435
YSMRWTFRYWVN | 0.042 | – | 0.495
